Results as given in patent publication US11780927B2, “Anti-CD40 antibodies for use in prevention of graft rejection” (NOVARTIS AG, priority 2018, dated 2023).

Molecular target: T1, CD40 on peripheral B cells (Homo sapiens, UniProt P25942)
T1 construct: CD40 occupancy on peripheral B cells measuring free CD40 and total CD40; endogenous in cells; host or cells: peripheral / whole blood B cells of healthy subjects and rheumatoid arthritis patients dosed with CFZ533
Test: Single-ascending dose study in healthy subjects and rheumatoid arthritis patients
Type: in vivo
Settings: for Safety and tolerability: single doses up to 3 mg/kg in healthy volunteers, 10 mg/kg in RA patients
Procedure: The safety, tolerability, PK and PD activity of mAb1 are being assessed in an ongoing, randomized, double-blind, placebo-controlled, single-ascending dose study of mAb1 in healthy subjects and patients with rheumatoid arthritis (RA). A total of 48 subjects have been enrolled: 36 healthy subjects who received single doses of mAb1 up to 3 mg/kg IV or S.C., and 12 patients with RA, 6 of whom received single doses of mAb1 at 10 mg/kg IV. […] An investigation of the 30 mg/kg IV dose is ongoing in RA patients. As this study is still ongoing, all clinical data are preliminary in nature and based on interim analyses conducted up to a dose of 10 mg/kg in RA patients. […]

T1 sequence (P25942 21-277): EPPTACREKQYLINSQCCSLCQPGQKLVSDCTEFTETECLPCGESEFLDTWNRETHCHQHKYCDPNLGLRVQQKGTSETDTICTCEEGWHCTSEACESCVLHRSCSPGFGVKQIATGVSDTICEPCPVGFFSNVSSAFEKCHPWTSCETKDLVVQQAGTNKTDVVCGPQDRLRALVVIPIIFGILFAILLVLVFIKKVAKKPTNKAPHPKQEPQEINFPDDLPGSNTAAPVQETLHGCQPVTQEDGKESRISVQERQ

For “CFZ533: human anti-CD40 IgG1 monoclonal antibody with Fc-silencing N297A mutation; heavy chain SEQ ID NO: 9, light chain SEQ ID NO: 10”, the “duration of full CD40 occupancy” value (1 mg/kg IV) was 1 week, the “duration of target engagement (full CD40 occupancy on B cells)” value (3 mg/kg IV, healthy subjects) was “about 4 weeks” and the “duration of target engagement (full CD40 occupancy on B cells)” value (3 mg/kg SC, healthy subjects) was “about 4 weeks”. The “time of peak plasma concentration” value (3 mg/kg SC, healthy subjects) was 3 days, the “duration of full CD40 occupancy” value (10 mg/kg IV, rheumatoid arthritis patients) was 8 weeks and the “duration of target engagement” value (30 mg/kg IV, rheumatoid arthritis patients) was 16 weeks. The “decrease in total CD40 on peripheral B cells” value (healthy subjects) was “about 50%”, the ADA incidence (human, in vivo) was 2% and the “plasma concentration associated with full (≥90%) CD40 occupancy on whole blood B cells” value (human, in vivo) was 0.3 to 0.4 µg/mL. The “duration of suppression of anti-KLH responses (full receptor occupancy)” value (single dose of 3 mg/kg (IV and SC)) was 3-4 weeks, the Safety and tolerability was “did not reveal major safety concern” and the Safety and tolerability (listed as mAb1) was “safe and well tolerated”.
